First the molecules themselves.
B1: 368_F11 (antibody, V domains shown)
VH: EVQLLESGGGLVQPGGSLRLSCAASGFTFSDYGMNWVRQAPGKGLEWVSGINYNGGYTSYADSVKGRFTISRDNSKNTLYLQMNSLRAEDTAVYYCARSANWHDTHLDYWGQGTLVTVSS
VL: DIQMTQSPSSLSASVGDRVTITCRASQSIVSYVNWYQQKPGKAPKLVIYAATSRASGVPSRFSGSGSGTDFTLTISSLQPEDFATYYCQQSYNNPLTFGGGTKVEIK
B2: 369_E11 (antibody, V domains shown)
VH: B1 VH with D31S, G50N, H106A
VL: B1 VL with V30I, V33L, V47L, R54L, N93D, N94T
B3: 370_A12 (antibody, V domains shown)
VH: B1 VH with D31S, S49A, H106A
VL: B1 VL with V30L, S31T, V33L, V47L, R54L, N93D, N94S
B4: 368_G12 (antibody, V domains shown)
VH: B1 VH with D31S, S49A, G50S, G55S, S59G, H106A
VL: B1 VL with V30S, A51V, N93E, N94T
B5: 370_C08 (antibody, V domains shown)
VH: B1 VH with D31S, S49A, T58K, S59G, H106A
VL: B1 VL with V30S, S31N, V33L, V47L, A51V, N93D, N94S
B6: 370_D04 (antibody, V domains shown)
VH: B1 VH with S30D, D31S, G33S, S49A, G50N, G55S, T58K, S59G, H106A
VL: B1 VL with V30L, S31T, V33L, N93D
B7: 370_G03 (antibody, V domains shown)
VH: B1 VH with D31S, G33S, S49A, G50N, S59G, H106A
VL: B1 VL with V30L, S31T, A51T
B8: 370_C05 (antibody, V domains shown)
VH: B1 VH with D31S, G33S, S49A, G55S, S59G, H106A
VL: B1 VL with V30L, N94S
B9: 369_D04 (antibody, V domains shown)
VH: B1 VH with S30D, D31S, H106A
VL: B1 VL with V30L, N94L
B10: 368_G01 (antibody, V domains shown)
VH: B1 VH with N35H, S49A, G50S, G55S, H106A
VL: B1 VL with V30L, S31T, V33L, N94L
B11: 369_G04 (antibody, V domains shown)
VH: B1 VH with S30D, D31S, G33S, H106A
VL: B1 VL with V30L, S31T, V47L, A51T, A55H, N93E, N94T
B12: 370_G02 (antibody, V domains shown)
VH: B1 VH with G33S, S49A, G50N, T58K, S59G, H106A
VL: B1 VL with V33L, V47L, A55H, N93D, N94S
B13: 369_F03 (antibody, V domains shown)
VH: B1 VH with G55S, H106A
VL: B1 VL with V47L, R54L, N93D, N94S
B14: 369_C04 (antibody, V domains shown)
VH: B1 VH with D31S, G33S, G50N, S59G, H106A
VL: B1 VL with V30L, S31T, V47L, A50T, A51T, R54L, A55H
B15: 370_A04 (antibody, V domains shown)
VH: B1 VH with S30D, D31S, G33S, H106A
VL: B1 VL with V30I, S31T, V33L, V47L, N93D
B16: 369_F11 (antibody, V domains shown)
VH: B1 VH with S30D, D31S, G50N, G55S, T58K, H106A
VL: B1 VL with V30I, V33L, V47L, N93D, N94L
B17: 368_H04 (antibody, V domains shown)
VH: B1 VH with D31S, G33S, S49A, G55S, T58K, S59G, R98K
VL: B1 VL with V47L, N93D, N94S
B18: 370_C01 (antibody, V domains shown)
VH: B1 VH with S30D, D31S, G33S, G55S, S59G, H106A
VL: B1 VL with V30L, S31T, V33L, R54L, N93D, N94T
B19: 369_F10 (antibody, V domains shown)
VH: B1 VH with S30D, D31S, G50N, G55S, T58K, H106A
VL: B1 VL with S31T, V33L, V47L, A51V, N93D, N94L
B20: 369_F01 (antibody, V domains shown)
VH: B1 VH with D31S, T58K, H106A
VL: B1 VL with V30L, S31T, V47L, N93E, N94L
B21: 369_E12 (antibody, V domains shown)
VH: B1 VH with D31S, N35H, S49A, G50S, G55S, H106A
VL: B1 VL with V30I, V33L, V47L, N93E, N94S
B22: 369_B01 (antibody, V domains shown)
VH: B1 VH with D31S, G33S, H106A
VL: B1 VL with V30L, V33L, V47L, A51V, N93E
B23: 369_H05 (antibody, V domains shown)
VH: B1 VH with D31S, S49A, G50N, S59G, H106A
VL: B1 VL with V47L, N93S
B24: 369_F02 (antibody, V domains shown)
VH: B1 VH with D31S, S49A, G50S, G55S, T58K, H106A
VL: B1 VL with V33L, N93D, N94T
B25: 370_E03 (antibody, V domains shown)
VH: B1 VH with D31S, G50S, T58K, S59G, H106A
VL: B1 VL with V30L, S31T, V33L, A50Y, T52S, S53N, N93D, N94S
B26: 369_A02 (antibody, V domains shown)
VH: B1 VH with D31S, G33S, S49A, G55S, S59G
VL: B1 VL with V30L, V47L, N93D, N94L
B27: 369_D02 (antibody, V domains shown)
VH: B1 VH with G33S, G50N, G55S, S59G, H106A
VL: B1 VL with V30L, V33L, A51V, N93D, N94T
B28: 369_H06 (antibody, V domains shown)
VH: B1 VH with D31S, S49A, G50N, T58K, H106A
VL: B1 VL with V47L, N93D, N94T
B29: 370_E06 (antibody, V domains shown)
VH: B1 VH with D31S, G55S, T58K, H106A
VL: B1 VL with V30L, V33L, A51T, R54L, N93D, N94T
B30: 369_G12 (antibody, V domains shown)
VH: B1 VH with D31S, G33S, S49A, G50N, S59G, H106A
VL: B1 VL with V30L, S31T, A55H, Y92D, N94T
B31: 370_D11 (antibody, V domains shown)
VH: B1 VH with S30D, D31S, G33S, S59G, H106A
VL: B1 VL with V33L, V47L, N93D, N94T
B32: 369_C02 (antibody, V domains shown)
VH: B1 VH with S30D, D31S, G33S, G50N, T58K, H106A
VL: B1 VL with V30L, S31T, V33L, N93E, N94L
B33: 369_D12 (antibody, V domains shown)
VH: B1 VH with S30D, D31S, G33S, S49A, G55S, H106A
VL: B1 VL with V30L, V33L, V47L, R54L, N93D, N94T
B34: 369_G06 (antibody, V domains shown)
VH: B1 VH with S30D, D31S, S49A, H106A
VL: B1 VL with V30L, N93E
B35: 369_G11 (antibody, V domains shown)
VH: B1 VH with D31S, G33S, S49A, G50N, G55S, T58K, S59G, H106A
VL: B1 VL with V30L, S31T, V33L, V47L, R54L, N93E, N94S
B36: 369_H09 (antibody, V domains shown)
VH: B1 VH with S30D, G33S, H106A
VL: B1 VL with V30L, V47L, A51V, R54L, N93E, N94S
B37: 370_A03 (antibody, V domains shown)
VH: B1 VH with D31S, G33S, G50N, H106A
VL: B1 VL with V30L, V33L, V47L, N93D, N94S
B38: 369_F06 (antibody, V domains shown)
VH: B1 VH with S30D, G33S, S49A, T58K, S59G, H106A
VL: B1 VL with N93D, N94S
B39: 369_C03 (antibody, V domains shown)
VH: B1 VH with D31S, G50N, T58K, H106A
VL: B1 VL with V30L, S31T, V33L, N93D, N94S
B40: 370_E09 (antibody, V domains shown)
VH: B1 VH with S30D, Y32S, G33S, N35H, G50N, S59G, R98K, H106A
VL: B1 VL with V30L, N93E, N94L
B41: 370_F05 (antibody, V domains shown)
VH: B1 VH with D31S, G55S, H106A
VL: B1 VL with N93E, N94T
B42: 370_F10 (antibody, V domains shown)
VH: B1 VH with D31S, G33S, S49A, H106A
VL: B1 VL with V33L, N94S
B43: 370_A01 (antibody, V domains shown)
VH: B1 VH with D31S, G33S, G55S, T58K, H106A
VL: B1 VL with V30S, S31T, V33L, N94L
B44: 369_E02 (antibody, V domains shown)
VH: B1 VH with S30D, D31S, G50N, S59G, H106A
VL: B1 VL with V47L, A51T, A55H, N93D
B45: 370_F07 (antibody, V domains shown)
VH: B1 VH with S30D, D31S, G33S, G50N, T58K, S59G, H106A
VL: B1 VL with V30L, V33L, V47L, N94L

Changes are numbered by the printed parent chain.

For the experiment, the target named is Human Fc (human). As to the kind of experiment: ELISA, negative control. (In an ELISA, binding on a coated surface is turned into a signal by an enzyme label.)
In the case of B1, the optical density was 0.338 OD. In the case of B2, the optical density came to 0.343 OD. Consider B3, for which the optical density is 0.674 OD. Next, B4: 0.341 OD; B5: 0.381 OD. Next, B6: 0.371 OD; B7: 0.421 OD. In the case of B8, the optical density amounted to 0.346 OD. Molecule B9 showed an optical density of 0.435 OD. Molecule B10 had an optical density of 0.431 OD. Molecule B11 had an optical density of 0.385 OD. Next, B12: 0.388 OD; B13: 0.389 OD; B14: 0.248 OD. With B15, the optical density worked out at 0.377 OD. With B16 the figure was 0.37 OD; with B17, 0.319 OD. In turn, B18 registered an optical density of 0.403 OD. B19 displayed an optical density of 0.361 OD. With B20 the figure was 0.554 OD; with B21, 0.452 OD; with B22, 0.487 OD. In turn, B23 showed an optical density of 0.457 OD. The molecule B24 came in with an optical density of 0.478 OD. Turning to B25, the optical density is 0.361 OD. In the case of B26, the optical density was 0.383 OD. With B27 the figure was 0.407 OD; with B28, 0.347 OD.

Consider B29, for which the optical density came out at 0.375 OD. In turn, B30 showed an optical density of 0.353 OD. With B31, the optical density is 0.34 OD. The molecule B32 registered an optical density of 0.369 OD. With B33 the figure was 0.425 OD. Molecule B34 came in with an optical density of 0.474 OD. On to B35, for which the optical density is 0.331 OD. Regarding B36, the optical density was 0.365 OD. Take B37: the optical density was 0.424 OD. Next, B38: 0.353 OD; B39: 0.323 OD. Molecule B40 returned an optical density of 0.338 OD.

B41 yielded an optical density of 0.406 OD. In turn, B42 registered an optical density of 0.441 OD. With B43 the figure was 0.637 OD; with B44, 0.365 OD. Turning to B45, the optical density was found to be 0.384 OD.

These data come from patent US20210380703A1.
